The values below come from paper PMC5460288, “In vitro assembly of the Rous Sarcoma Virus capsid protein into hexamer tubes at physiological temperature” (Scientific Reports, 2017).

Data set [1] concerns the target RSV CA carrying the C-terminal spacer peptide (CA-SP, CA + 12) (Rous Sarcoma Virus (strain Prague C)). In words: cryo-EM structure; iterative real space helical reconstruction (SPRING) of one single-layered CA-SP tube, local C6 symmetrization of the turrets, 24 Å (FSC 0.143).
Data set [2] deals with the molecule itself. In words: negative-stain transmission electron microscopy; 600–700 μM protein dialyzed 16–24 h (overnight) at 37 °C against neutral pH (pH 7) buffer with 25–150 mM NaCl; uranyl acetate stain.

The stoichiometry N is the number of molecules, sites or subunits per partner or assembly. “RSV CA carrying the C-terminal spacer peptide (CA-SP, CA + 12) (natural protein)”: in data set [1], the stoichiometry N worked out at 6.

B1: Rous Sarcoma Virus capsid protein (RSV CA), wild type (natural protein)
chain: PVVIKTEGPAWTPLEPKLITRLADTVRTKGLRSPITMAEVEALMSSPLLPHDVTNLMRVILGPAPYALWMDAWGVQLQTVIAAATRDPRHPANGQGRGERTNLNRLKGLADGMVGNPQGQAALLRPGELVAITASALQAFREVARLAEPAGPWADIMQGPSESFVDFANRLIKAVEGSDLPPSARAPVIIDCFRQKSQPDIQQLIRTAPSTLTTPGEIIKYVLDRQKTAPLTDQGIA
notes: capsid protein (CA), the cut product of the Gag polyprotein of Rous sarcoma virus strain Prague C; the naturally occurring species denoted CA (without spacer peptide residues); also called wild type RSV CA; full length RSV CA; not shown: Mycobacterium xenopi GyrA intein (modified), C-terminal, cleaved
As to B1, the “stoichiometry N” value in data set [2] turned out to be 6.
